First the molecules themselves.
B1: IgG1-F533 (antibody)
heavy: QVQLQESGPGLVKPSETLSLTCAVSGHSISHDHAWSWVRQPPGEGLEWIGFISYSGITNYNPSLQGRVTISRDNSKNTLYLQMNSLRAEDTAVYYCARSLARTTAMDYWGEGTLVTVSSASTKGPSVFPLAPSSKSTSGGTAALGCLVKDYFPEPVTVSWNSGALTSGVHTFPAVLQSSGLYSLSSVVTVPSSSLGTQTYICNVNHKPSNTKVDKKVEPKSCDKTHTCPPCPAPELLGGPSVFLFPPKPKDTLMISRTAEVTCVVVDVSHEDPEVKFNWYVDGVEVHEAKTKPREEQYNSTYRVVSVLQVLHQDWLNGKEYKCKVSNKALPAPIEKTISKAKGQPREPQVYTLPPSRDELTKNQVSLTCLVKGFYPSDIAVEWESNGQPENNYKTTPPVLDSDGSFFLYSKLTVDKSRWQQGNVFSCSVFHEALHYHYTQKSLSLSP
light: not shown
notes: EU numbering; copies: 2 + 2
B2: IgG1-F534 (antibody)
heavy: QVQLQESGPGLVKPSETLSLTCAVSGHSISHDHAWSWVRQPPGEGLEWIGFISYSGITNYNPSLQGRVTISRDNSKNTLYLQMNSLRAEDTAVYYCARSLARTTAMDYWGEGTLVTVSSASTKGPSVFPLAPSSKSTSGGTAALGCLVKDYFPEPVTVSWNSGALTSGVHTFPAVLQSSGLYSLSSVVTVPSSSLGTQTYICNVNHKPSNTKVDKKVEPKSCDKTHTCPPCPAPELLGGPSVFLFPPKPKDTLMISRTAEVTCVVVDVSHEDPEVKFNWYVDGVEVHEAKTKPREEQYNSTYRVVSVLQVLHQDWLNGKEYKCKVSNKALPAPIEKTISKAKGQPREPQVYTLPPSRDELTKNQVSLTCLVKGFYPSDIAVEWESNGQPENNYKTTPPVLDSDGSFFLYSKLTVDKSRWQQGNVFSCSVYHEALHYHYTQKSLSLSP
light: not shown
notes: EU numbering; copies: 2 + 2
B3: IgG1-F550 (antibody)
heavy: QVQLQESGPGLVKPSETLSLTCAVSGHSISHDHAWSWVRQPPGEGLEWIGFISYSGITNYNPSLQGRVTISRDNSKNTLYLQMNSLRAEDTAVYYCARSLARTTAMDYWGEGTLVTVSSASTKGPSVFPLAPSSKSTSGGTAALGCLVKDYFPEPVTVSWNSGALTSGVHTFPAVLQSSGLYSLSSVVTVPSSSLGTQTYICNVNHKPSNTKVDKKVEPKSCDKTHTCPPCPAPELLGGPSVFLFPPKPKDVLMISRTVEVTCVVVDVSHEDPEVKFNWYVDGVEVHNAKTKPREEQYNSTYRVVSVLQVLHQDWLNGKEYKCKVSNKALPAPIEKTISKAKGQPREPQVYTLPPSRDELTKNQVSLTCLVKGFYPSDIAVEWESNGQPENNYKTTPPVLDSDGSFFLYSKLTVDKSRWQQGNVFSCSVLHEALHYHYTQKSLSLSP
light: not shown
notes: EU numbering; copies: 2 + 2
B4: IgG1-F538 (antibody)
heavy: QVQLQESGPGLVKPSETLSLTCAVSGHSISHDHAWSWVRQPPGEGLEWIGFISYSGITNYNPSLQGRVTISRDNSKNTLYLQMNSLRAEDTAVYYCARSLARTTAMDYWGEGTLVTVSSASTKGPSVFPLAPSSKSTSGGTAALGCLVKDYFPEPVTVSWNSGALTSGVHTFPAVLQSSGLYSLSSVVTVPSSSLGTQTYICNVNHKPSNTKVDKKVEPKSCDKTHTCPPCPAPELLGGPSVFLFPPKPKDFLMISRTVEVTCVVVDVSHEDPEVKFNWYVDGVEVHNAKTKPREEQYNSTYRVVSVLQVLHQDWLNGKEYKCKVSNKALPAPIEKTISKAKGQPREPQVYTLPPSRDELTKNQVSLTCLVKGFYPSDIAVEWESNGQPENNYKTTPPVLDSDGSFFLYSKLTVDKSRWQQGNVFSCSVLHEALHYHYTQKSLSLSP
light: not shown
notes: EU numbering; copies: 2 + 2
B5: IgG1-F535 (antibody)
heavy: QVQLQESGPGLVKPSETLSLTCAVSGHSISHDHAWSWVRQPPGEGLEWIGFISYSGITNYNPSLQGRVTISRDNSKNTLYLQMNSLRAEDTAVYYCARSLARTTAMDYWGEGTLVTVSSASTKGPSVFPLAPSSKSTSGGTAALGCLVKDYFPEPVTVSWNSGALTSGVHTFPAVLQSSGLYSLSSVVTVPSSSLGTQTYICNVNHKPSNTKVDKKVEPKSCDKTHTCPPCPAPELLGGPSVFLFPPKPKDALMISRTVEVTCVVVDVSHEDPEVKFNWYVDGVEVHNAKTKPREEQYNSTYRVVSVLQVLHQDWLNGKEYKCKVSNKALPAPIEKTISKAKGQPREPQVYTLPPSRDELTKNQVSLTCLVKGFYPSDIAVEWESNGQPENNYKTTPPVLDSDGSFFLYSKLTVDKSRWQQGNVFSCSVLHEALHYHYTQKSLSLSP
light: not shown
notes: EU numbering; copies: 2 + 2
B6: IgG1-F549 (antibody)
heavy: QVQLQESGPGLVKPSETLSLTCAVSGHSISHDHAWSWVRQPPGEGLEWIGFISYSGITNYNPSLQGRVTISRDNSKNTLYLQMNSLRAEDTAVYYCARSLARTTAMDYWGEGTLVTVSSASTKGPSVFPLAPSSKSTSGGTAALGCLVKDYFPEPVTVSWNSGALTSGVHTFPAVLQSSGLYSLSSVVTVPSSSLGTQTYICNVNHKPSNTKVDKKVEPKSCDKTHTCPPCPAPELLGGPSVFLFPPKPKDSLMISRTVEVTCVVVDVSHEDPEVKFNWYVDGVEVHNAKTKPREEQYNSTYRVVSVLQVLHQDWLNGKEYKCKVSNKALPAPIEKTISKAKGQPREPQVYTLPPSRDELTKNQVSLTCLVKGFYPSDIAVEWESNGQPENNYKTTPPVLDSDGSFFLYSKLTVDKSRWQQGNVFSCSVLHEALHYHYTQKSLSLSP
light: not shown
notes: EU numbering; copies: 2 + 2
B7: IgG1-F544 (antibody)
heavy: QVQLQESGPGLVKPSETLSLTCAVSGHSISHDHAWSWVRQPPGEGLEWIGFISYSGITNYNPSLQGRVTISRDNSKNTLYLQMNSLRAEDTAVYYCARSLARTTAMDYWGEGTLVTVSSASTKGPSVFPLAPSSKSTSGGTAALGCLVKDYFPEPVTVSWNSGALTSGVHTFPAVLQSSGLYSLSSVVTVPSSSLGTQTYICNVNHKPSNTKVDKKVEPKSCDKTHTCPPCPAPELLGGPSVFLFPPKPKDMLMISRTVEVTCVVVDVSHEDPEVKFNWYVDGVEVHNAKTKPREEQYNSTYRVVSVLQVLHQDWLNGKEYKCKVSNKALPAPIEKTISKAKGQPREPQVYTLPPSRDELTKNQVSLTCLVKGFYPSDIAVEWESNGQPENNYKTTPPVLDSDGSFFLYSKLTVDKSRWQQGNVFSCSVLHEALHYHYTQKSLSLSP
light: not shown
notes: EU numbering; copies: 2 + 2
B8: IgG1-F541 (antibody)
heavy: QVQLQESGPGLVKPSETLSLTCAVSGHSISHDHAWSWVRQPPGEGLEWIGFISYSGITNYNPSLQGRVTISRDNSKNTLYLQMNSLRAEDTAVYYCARSLARTTAMDYWGEGTLVTVSSASTKGPSVFPLAPSSKSTSGGTAALGCLVKDYFPEPVTVSWNSGALTSGVHTFPAVLQSSGLYSLSSVVTVPSSSLGTQTYICNVNHKPSNTKVDKKVEPKSCDKTHTCPPCPAPELLGGPSVFLFPPKPKDILMISRTVEVTCVVVDVSHEDPEVKFNWYVDGVEVHNAKTKPREEQYNSTYRVVSVLQVLHQDWLNGKEYKCKVSNKALPAPIEKTISKAKGQPREPQVYTLPPSRDELTKNQVSLTCLVKGFYPSDIAVEWESNGQPENNYKTTPPVLDSDGSFFLYSKLTVDKSRWQQGNVFSCSVLHEALHYHYTQKSLSLSP
light: not shown
notes: EU numbering; copies: 2 + 2
B9: IgG1-F551 (antibody)
heavy: QVQLQESGPGLVKPSETLSLTCAVSGHSISHDHAWSWVRQPPGEGLEWIGFISYSGITNYNPSLQGRVTISRDNSKNTLYLQMNSLRAEDTAVYYCARSLARTTAMDYWGEGTLVTVSSASTKGPSVFPLAPSSKSTSGGTAALGCLVKDYFPEPVTVSWNSGALTSGVHTFPAVLQSSGLYSLSSVVTVPSSSLGTQTYICNVNHKPSNTKVDKKVEPKSCDKTHTCPPCPAPELLGGPSVFLFPPKPKDWLMISRTVEVTCVVVDVSHEDPEVKFNWYVDGVEVHNAKTKPREEQYNSTYRVVSVLQVLHQDWLNGKEYKCKVSNKALPAPIEKTISKAKGQPREPQVYTLPPSRDELTKNQVSLTCLVKGFYPSDIAVEWESNGQPENNYKTTPPVLDSDGSFFLYSKLTVDKSRWQQGNVFSCSVLHEALHYHYTQKSLSLSP
light: not shown
notes: EU numbering; copies: 2 + 2

The target of the assay is T1, human FcRn (soluble human FcRn complexed with β2-microglobulin) (human, UniProt P61769 21-119, limits assumed).
T1 construct: also called hFcRn
T1 sequence (chain, as listed by the source limits assumed, chain 1 of 2): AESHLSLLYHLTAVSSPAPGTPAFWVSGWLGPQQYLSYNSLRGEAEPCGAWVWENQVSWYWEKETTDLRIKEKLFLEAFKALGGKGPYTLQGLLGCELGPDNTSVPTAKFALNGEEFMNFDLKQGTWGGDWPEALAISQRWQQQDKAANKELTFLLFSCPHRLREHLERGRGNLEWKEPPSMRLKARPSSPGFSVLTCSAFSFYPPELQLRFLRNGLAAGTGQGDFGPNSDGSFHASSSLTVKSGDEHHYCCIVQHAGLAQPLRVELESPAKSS
T1 sequence (P61769 21-119 limits assumed, chain 2 of 2): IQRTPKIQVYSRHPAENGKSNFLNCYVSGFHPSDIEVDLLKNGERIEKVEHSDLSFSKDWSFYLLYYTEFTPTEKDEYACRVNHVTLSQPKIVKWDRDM
The assay can be described thus: SPR, pH 7.0.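 Further: antibodies captured on a Protein L sensor chip with human FcRn injected as analyte, KD calculated from fitted association and dissociation rate constants.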 A general note: SPR reads the build-up and loss of mass on a sensor chip optically.
For the molecule B1, the affinity, expressed as Kd, was 12 nM.
In the case of B2, the Kd stood at 12 nM.
Regarding B3, binding was put at a Kd of 59 nM.
The result for B4 reads 99 nM.
For the molecule B5, binding was characterised by a dissociation constant (Kd) of 39 nM.
B6 showed a Kd of 54 nM.
In turn, B7 registered a Kd of 31 nM.
The result for B8 reads 60 nM; that for B9, 120 nM.

One may read the Kd as the equilibrium constant for the complex coming apart.

(Values after patent publication US20200199241A1 (Chugai, published 2020).)
